Several values for one entry are separate records, joined by “and”; a condition that tells them apart may be missing. Equal entries are not always repeated.

The target in this assay is T1, rabbit GH receptor (full length, stably expressed on murine FDC-P1 cells, GH-R4 line) (rabbit) (UniProt P19941).
T1 sequence (looked up): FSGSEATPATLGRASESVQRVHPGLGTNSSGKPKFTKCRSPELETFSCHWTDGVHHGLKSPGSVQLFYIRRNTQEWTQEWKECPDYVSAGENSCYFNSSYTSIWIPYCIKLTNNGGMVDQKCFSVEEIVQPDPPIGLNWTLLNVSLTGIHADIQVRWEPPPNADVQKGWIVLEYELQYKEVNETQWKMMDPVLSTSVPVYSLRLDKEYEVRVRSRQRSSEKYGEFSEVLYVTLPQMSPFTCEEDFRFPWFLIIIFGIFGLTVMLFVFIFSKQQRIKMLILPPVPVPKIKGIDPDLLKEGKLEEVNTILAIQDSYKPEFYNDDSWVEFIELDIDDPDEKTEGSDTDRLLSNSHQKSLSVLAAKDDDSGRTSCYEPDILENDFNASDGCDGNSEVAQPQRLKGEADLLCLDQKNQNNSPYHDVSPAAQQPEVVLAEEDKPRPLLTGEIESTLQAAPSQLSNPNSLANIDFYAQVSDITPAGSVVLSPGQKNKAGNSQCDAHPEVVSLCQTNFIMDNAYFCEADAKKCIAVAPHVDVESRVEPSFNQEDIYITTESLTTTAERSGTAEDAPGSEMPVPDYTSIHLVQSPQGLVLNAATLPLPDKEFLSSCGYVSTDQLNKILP
Put plainly: cell-based or functional assay.

For “PEG-S144C hGH (mono-PEGylated S144C) (from UniProt P01241 27-217) (ligand)”, the EC50, individual experiment, cell proliferation assay (Example 1) was 40 ng/mL and 45 ng/mL; the mean EC50 (molar form), cell proliferation assay (Example 1) amounted to 2 nM.
In turn, “PEG-T3C hGH (mono-PEGylated T3C monomer) (from UniProt P01241 27-217) (ligand)” yielded a mean EC50 (molar form), cell proliferation assay (Example 1) of 0.07 nM.
In the case of “hGH cysteine mutein S144C (from UniProt P01241 27-217) (ligand)”, the EC50, individual experiment (second value), proliferation of FDC-P1 cells expressing the rabbit GH receptor turned out to be 1.1 ng/mL and the Mean EC50, proliferation of FDC-P1 cells expressing the rabbit GH receptor (GH-R4), MTS was found to be 1.6 ng/mL.
With “hGH cysteine mutein T3C, disulfide-linked homodimer (from UniProt P01241 27-217) (ligand)”, the Mean EC50, proliferation of FDC-P1 cells expressing the rabbit GH receptor (GH-R4), MTS was 1.4 ng/mL.
Regarding “hGH cysteine mutein T148C (from UniProt P01241 27-217) (ligand)”, the EC50, individual experiment (T148C-lotA), proliferation of FDC-P1 cells expressing the rabbit GH receptor is 0.4 ng/mL and 0.5 ng/mL; the EC50, individual experiment (T148C-lotB), proliferation of FDC-P1 cells expressing the rabbit GH receptor was 1.5 ng/mL and 1.9 ng/mL and 3.1 ng/mL; the Mean EC50 (T148C-lotA), proliferation of FDC-P1 cells expressing the rabbit GH receptor (GH-R4), MTS amounted to 0.5 ng/mL; the Mean EC50 (T148C-lotB), proliferation of FDC-P1 cells expressing the rabbit GH receptor (GH-R4), MTS was determined as 2.5 ng/mL.
Take “wild-type recombinant human growth hormone (rhGH) secreted to the E. coli periplasm from stII-hGH (from UniProt P01241 27-217) (ligand)”: the EC50, individual experiment, proliferation of FDC-P1 cells expressing the rabbit GH receptor is 0.8 ng/mL and 1.1 ng/mL; the Mean EC50, proliferation of FDC-P1 cells expressing the rabbit GH receptor (GH-R4), MTS was 0.8 ng/mL.

(Values after patent publication US20050187160A1.)
